The values below come from publication PMC6121587, “In Vitro Inhibitory Mechanism Effect of TRAIP on the Function of TRAF2 Revealed by Characterization of Interaction Domains” (International Journal of Molecular Sciences, 2018).

Several values for one entry are separate records, joined by “and”; a condition that tells them apart may be missing. Equal entries are not always repeated.

The chains are these.
B3: TRAIP RING domain plus coiled-coil domain (TRAIP RING-CC, residues 1-157) (domain or fragment, human, UniProt Q9BWF2 1-157, looked up)
chain: MPIRALCTICSDFFDHSRDVAAIHCGHTFHLQCLIQWFETAPSRTCPQCRIQVGKRTIINKLFFDLAQEEENVLDAEFLKNELDNVRAQLSQKDKEKRDSQVIIDTLRDTLEERNATVVSLQQALGKAEMLCSTLKKQMKYLEQQQDETKQAQEEAR
notes: Exists in different forms and higher-order oligomers; calculated monomer mass with the tag 18,893 Da; not shown: His6, C-terminal, kept

Data set [1] concerns the target TRAF4 TRAF domain (TRAF-N and TRAF-C) (human). The data set can be described thus: SEC; single purified protein on Superdex 200 10/30, 20 mM Tris-HCl pH 8.0, 150 mM NaCl.
Data set [2] deals with TRAF2 TRAF domain (TRAF-N and TRAF-C) (human). Described as above.
Data set [3] concerns the molecule itself. Described as above.
Data set [4] concerns the molecule itself. Description: AUC; sedimentation velocity, 20 °C, 2 mg/mL, 20 mM Tris-HCl pH 8.0, 150 mM NaCl, 45,000 rpm, 280 nm, SEDFIT c(s); the paper calls the TRAIP CC concentration low.
Data set [5] addresses B3. The data set can be described thus: native gel or EMSA; Native PAGE shift assay of mixtures of two purified proteins, Phast System, 8-25% gradient gel, Coomassie. The conditions noted are these: both partners purified.
Data set [6] deals with the molecule itself. The data set can be described thus: SEC + SEC-MALS; TRAIP CC alone, high concentration; Superdex 200 10/30; MALS on mini-DAWN treos.

“TRAF4 TRAF domain (TRAF-N and TRAF-C) (domain or fragment)” registered a stoichiometry N in data set [1] of 3. Regarding “TRAF2 TRAF domain (TRAF-N and TRAF-C) (domain or fragment)”, the stoichiometry N in data set [2] was found to be 3.

B1: TRAF1 TRAF-N coiled-coil domain (amino acids 181-244) (domain or fragment, UniProt Q13077 181-244, looked up)
chain: FMKEKLLAELEGKLRVFENIVAVLNKEVEASHLALATSIHQSQLDRERILSLEQRVVELQQTLA
notes: TNF receptor-associated factor 1 (TRAF1), TRAF-N coiled-coil domain, amino acids 181-244; also called TRAF1 TRAF-N CC
Take B1: the “stoichiometry N” value in data set [3] is 3.

B2: TRAF2 TRAF-N coiled-coil domain (amino acids 264-329) (domain or fragment, human, UniProt Q12933 264-329, looked up)
chain: AGSELLQRCESLEKKTATFENIVCVLNREVERVAMTAEACSRQHRLDQDKIEALSSKVQQLERSIG
notes: TNF receptor-associated factor 2 (TRAF2), human, TRAF-N coiled-coil domain, amino acids 264-329; Trimer by SEC; dimer and possible trimer by AUC. 'Human' is said of the TRAF2 TRAF domain in the same methods paragraph, not of this construct itself; also called TRAF2 TRAF-N CC; TRAF2 CC
For the molecule B2, the “stoichiometry N” value in data set [4] was 2 and 3. Moreover, in data set [5], the binding result is given as “binds”. In the case of B3, the binding result in data set [3] was “binds”.

B4: TRAIP coiled-coil domain (TRAIP CC, residues 72-167) (domain or fragment, human, UniProt Q9BWF2 72-167, looked up)
chain: NVLDAEFLKNELDNVRAQLSQKDKEKRDSQVIIDTLRDTLEERNATVVSLQQALGKAEMLCSTLKKQMKYLEQQQDETKQAQEEARRLRSKMKTME
notes: Trimer by SEC and MALS at high concentration, dimer by AUC at low concentration; calculated monomer mass with the tag 12,425 Da; not shown: His6, C-terminal, kept
As to B4, the “stoichiometry N” value is 2 in data set [4] and 3 in data set [6].
